From patent US20110154538A1 (UNITED STATES OF AMERICA AS REPRESENTED BY THE SECRETARY OF …, published 2011) come the findings set out here.

For this assay, the target named is T1, Gal4 activation domain (AD) negative control (UniProt P04386 768-881).
T1 sequence: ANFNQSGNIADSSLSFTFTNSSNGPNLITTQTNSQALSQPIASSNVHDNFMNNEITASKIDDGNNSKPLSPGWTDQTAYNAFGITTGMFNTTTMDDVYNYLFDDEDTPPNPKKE
The assay can be described thus: yeast two-hybrid, growth on selective medium.

B1: AltMV-Po coat protein (other)
chain: MSTPFPQVTQEQIDAFTPHTTSNLLPSPEQLTTIASLLVAAKVPAASTTTIALELVNFCYDNGSSAYTVVVGPSSISGVSLSQVANIVKASGTSLRKFCRFFAPIIWNLRTDKTPPANWEANGFKPTEKFAAFDFFDGVENPAAMQPPGGLVRAPSQAERIANATNKQVNLFQAAAQDNNFASNSAFITKGQLSSNSPTIQYLPPPE
notes: also called AltMV-Po CP; CP-Po
Regarding B1, the binding result is reported as “no binding”.
